# From paper PMC9785345
# Tests used:
# [1] = molecular target: recombinant SARS-CoV-2 spike receptor-binding domain (rRBD), Wuhan-Hu-1 isolate, residues 319-541 wi (SARS-CoV-2) (UniProt P0DTC2); experiment: SEC
# [2] = molecular target: recombinant SARS-CoV-2 spike receptor-binding domain (rRBD), Wuhan-Hu-1 isolate, residues 319-541 wi (SARS-CoV-2) (UniProt P0DTC2); experiment: non-reducing SDS-PAGE with western blot
# [3] = molecular target: recombinant SARS-CoV-2 spike receptor-binding domain (rRBD), Wuhan-Hu-1 isolate, residues 319-541 wi (SARS-CoV-2) (UniProt P0DTC2); experiment: non-reducing SDS-PAGE
substance,measurement,setting,value
"recombinant SARS-CoV-2 spike receptor-binding domain (rRBD), Wuhan-Hu-1 isolate, residues 319-541 wi (from UniProt P0DTC2 319-541) (domain or fragment)",stoichiometry N,[1],2
same,percent dimer of total rRBD (4 dpi),[2],17.9%
same,stoichiometry N,[2],2
same,stoichiometry N,[3],2
